Source: PMC5844793 (Bioorganic & medicinal chemistry, 2017)
Entries after “also recorded” stand apart in the source; their conditions may differ. Read-outs that look alike come from different tables or passages of the source. *1 amine or outer side, *2 acyl side, *3 side chain or, on linkers, in order; H or OH if unused. Bridges are numbered along the chain shown (N, C = ends). The star is where a group is joined. fluorescein = fluorescein: a label attached as NHS-fluorescein acylation on the lysine side chain (K*); pXylylene = c1cc(C[*:2])ccc1C[*:1]; Cysteamide = C(CS[*:3])N[*:1]; 4‑pentynyl = C#CCCC*

B1: EHD1-EH EH domain (protein)
chain: VGKDKPTYDEIFYTLSPVNGKITGANAKKEMVKSKLPNTVLGKIWKLADVDKDGLLDDEEFALANHLIKVKLEGHELPADLPPHLVPPSKRRHE

How the values were obtained:
HeLa cells = assay: Cell-based transferrin; settings: 50 μM during 60-min pulse and 30-min chase
5-OX = target: T1, 5-OX (linker 1-6 via ortho‑xylene (inferred)); assay: fluorescence polarization competition
T1 chain: Ac-CNPFEC-OH

4-MX = target: T2, 4-MX (bridge 1-C; not fully specified (bridges)); assay: fluorescence polarization competition
T2 chain: {4‑pentynyl}-CNPFEE-Cysteamide

1-MX = target: T3, 1-MX (thioether 1-C via meta‑xylene); assay: fluorescence polarization competition
T3 chain: {4‑pentynyl}-CYNPFEE-Cysteamide

3-OX = target: T4, 3-OX (bridge 1-C; not fully specified (bridges)); assay: fluorescence polarization competition
T4 chain: {4‑pentynyl}-CNPFE-Cysteamide

1-PX = target: T5, 1-PX (thioether 1-C via pXylylene (inferred)); assay: fluorescence polarization competition
T5 chain: {4‑pentynyl}-CYNPFEE-Cysteamide

cNPF1 = target: T6, cNPF1 (backbone cyclic); assay: fluorescence polarization competition
T6 chain: YNPFEEGG

4-PX = target: T7, 4-PX (bridge 1-C; not fully specified (bridges)); assay: fluorescence polarization competition
T7 chain: {4‑pentynyl}-CNPFEE-Cysteamide

4-OX = target: T8, 4-OX (bridge 1-C; not fully specified (bridges)); assay: fluorescence polarization competition
T8 chain: {4‑pentynyl}-CNPFEE-Cysteamide

cNPF1Flu = target: T9, cNPF1Flu; assay: fluorescence polarization
T9 chain: cyclo(YNPFEEGK(fluorescein))

Flu-3-OX [1] = target: Flu-3-OX
Flu-3-OX [2] = target: Flu-3-OX; remark: listed apart in the source
Flu-1-PX [3] = target: Flu-1-PX
Flu-1-PX [4] = target: Flu-1-PX; remark: listed apart in the source
Flu-5-OX [5] = target: Flu-5-OX
Flu-5-OX [6] = target: Flu-5-OX; remark: listed apart in the source
Flu-4-PX [7] = target: Flu-4-PX
Flu-4-PX [8] = target: Flu-4-PX; remark: listed apart in the source

Molecule | effect on trafficking/recycling of Tf-488 (HeLa cells) | IC50 (5-OX) | IC50 (4-MX) | IC50 (1-MX) | IC50 (3-OX) | IC50 (1-PX) | IC50 (cNPF1) | IC50 (4-PX) | IC50 (4-OX) | Kd (cNPF1Flu) | Kd (Flu-3-OX [1]) | Kd (Flu-3-OX [2]) | Kd (Flu-1-PX [3]) | Kd (Flu-1-PX [4]) | Kd (Flu-5-OX [5]) | Kd (Flu-5-OX [6]) | Kd (Flu-4-PX [7]) | Kd (Flu-4-PX [8])
COc1cc(NC(C)CCCN)c2ncccc2c1 (stereo not drawn) [primaquine] | increased signal following the chase, consistent with impaired recycling of internalized Tf-488; also recorded: inhibition of recycling |  |  |  |  |  |  |  |  |  |  |  |  |  |  |  |  | 
B1 |  | 34 µM | 88.1 µM | 68.8 µM | 76.5 µM | 27.1 µM | 55.5 µM | 38.9 µM | 62.8 µM | 3000 nM | 4.5 µM | 14.6 µM | 1100 nM | 6 µM | 1600 nM | 7.3 µM | 1800 nM | 8.1 µM
